{
  "source": "the supplement of paper PMC10567573",
  "parents": {"B1": {"name": "NP_006221.1 (parent)", "chain": "CQPISFSGFGAEDDDLGGLGLGP"}},
  "data": [
    {"variants_of": "B1", "assay": "protein stability index of a GFP-peptide fusion (GPS, HEK-293T) (PSI 1-6); higher = more stable", "details": "c terminus: native", "values": [
      {"variant": "CQPISFSGFGAWDDDLGGLGLGP", "note": "[E12W]", "protein stability index": 2.29},
      {"variant": "CQPISFSGFGACDDDLGGLGLGP", "note": "[E12C]", "protein stability index": 2.43},
      {"variant": "CQPISFSGFGAMDDDLGGLGLGP", "note": "[E12M]", "protein stability index": 2.25},
      {"variant": "CQPISFSGFGAVDDDLGGLGLGP", "note": "[E12V]", "protein stability index": 2.3},
      {"variant": "CQPISFSGFGAPDDDLGGLGLGP", "note": "[E12P]", "protein stability index": 2.07},
      {"variant": "CQPISFSGFGAFDDDLGGLGLGP", "note": "[E12F]", "protein stability index": 2.17},
      {"variant": "CQPISFSGFGASDDDLGGLGLGP", "note": "[E12S]", "protein stability index": 2.44},
      {"variant": "CQPISFSGFGAHDDDLGGLGLGP", "note": "[E12H]", "protein stability index": 2.48},
      {"variant": "CQPISFSGFGAKDDDLGGLGLGP", "note": "[E12K]", "protein stability index": 2.17},
      {"variant": "CQPISFSGFGAGDDDLGGLGLGP", "note": "[E12G]", "protein stability index": 2.5},
      {"variant": "CQPISFSGFGAEDDDLGYLGLGP", "note": "[G18Y]", "protein stability index": 2.18},
      {"variant": "CQPISFSGFGAEDDDLGMLGLGP", "note": "[G18M]", "protein stability index": 1.99},
      {"variant": "CQPISFSGFGAEDDDLGRLGLGP", "note": "[G18R]", "protein stability index": 2.31},
      {"variant": "CQPISFSGFGAEDDDLGVLGLGP", "note": "[G18V]", "protein stability index": 2.17},
      {"variant": "CQPISFSGFGAEDDDLGTLGLGP", "note": "[G18T]", "protein stability index": 2.23},
      {"variant": "CQPISFSGFGAEDDDLGWLGLGP", "note": "[G18W]", "protein stability index": 2.57},
      {"variant": "CQPISFSGFGAEDDDLGQLGLGP", "note": "[G18Q]", "protein stability index": 2},
      {"variant": "CQPISFSGFGAEDDDLGKLGLGP", "note": "[G18K]", "protein stability index": 1.93},
      {"variant": "CQPISFSGFGAEDDDLGNLGLGP", "note": "[G18N]", "protein stability index": 2.16},
      {"variant": "CQPISFSGFGAEDDDLGHLGLGP", "note": "[G18H]", "protein stability index": 1.99},
      {"variant": "CQPISFSGFGAEDDDLGALGLGP", "note": "[G18A]", "protein stability index": 2.13},
      {"variant": "CQPISFSGFGAEDDDLGILGLGP", "note": "[G18I]", "protein stability index": 2.18},
      {"variant": "CQPISFSGFGAEDDDLGDLGLGP", "note": "[G18D]", "protein stability index": 2.19},
      {"variant": "CQPISFSGFGAEDDDLGFLGLGP", "note": "[G18F]", "protein stability index": 2.24},
      {"variant": "CQPISFSGFGAEDDDLGCLGLGP", "note": "[G18C]", "protein stability index": 2.35},
      {"variant": "CQPISFSGFGAEDDDLGSLGLGP", "note": "[G18S]", "protein stability index": 2.24},
      {"variant": "CQPISFSGFGAEDDDLGPLGLGP", "note": "[G18P]", "protein stability index": 1.99},
      {"variant": "CQPISFSGFGAEDDDLGELGLGP", "note": "[G18E]", "protein stability index": 2.42},
      {"variant": "CQPISFSGFGAEDDDLGLLGLGP", "note": "[G18L]", "protein stability index": 2.24},
      {"variant": "CQPISFSGFGAEWDDLGGLGLGP", "note": "[D13W]", "protein stability index": 2.31},
      {"variant": "CQPISFSGFGAEGDDLGGLGLGP", "note": "[D13G]", "protein stability index": 2.53},
      {"variant": "CQPISFSGFGAERDDLGGLGLGP", "note": "[D13R]", "protein stability index": 2.04},
      {"variant": "CQPISFSGFGAELDDLGGLGLGP", "note": "[D13L]", "protein stability index": 2.27},
      {"variant": "CQPISFSGFGAEVDDLGGLGLGP", "note": "[D13V]", "protein stability index": 2.28},
      {"variant": "CQPISFSGFGAEMDDLGGLGLGP", "note": "[D13M]", "protein stability index": 2.24},
      {"variant": "CQPISFSGFGAESDDLGGLGLGP", "note": "[D13S]", "protein stability index": 2.41},
      {"variant": "CQPISFSGFGAECDDLGGLGLGP", "note": "[D13C]", "protein stability index": 2.42},
      {"variant": "CQPISFSGFGAEIDDLGGLGLGP", "note": "[D13I]", "protein stability index": 2.5},
      {"variant": "CQPISFSGFGAEKDDLGGLGLGP", "note": "[D13K]", "protein stability index": 1.93},
      {"variant": "CQPISFSGFGAEEDDLGGLGLGP", "note": "[D13E]", "protein stability index": 2.22},
      {"variant": "CQPISFSGFGAEHDDLGGLGLGP", "note": "[D13H]", "protein stability index": 2.2},
      {"variant": "CQPISFSGFGAEPDDLGGLGLGP", "note": "[D13P]", "protein stability index": 2.08},
      {"variant": "CQPISFSGFGAEYDDLGGLGLGP", "note": "[D13Y]", "protein stability index": 2.02},
      {"variant": "CQPISFSGFGAEADDLGGLGLGP", "note": "[D13A]", "protein stability index": 2.46},
      {"variant": "CQPISFSGFGAENDDLGGLGLGP", "note": "[D13N]", "protein stability index": 2.2},
      {"variant": "CQPISFSGFGAETDDLGGLGLGP", "note": "[D13T]", "protein stability index": 2.28},
      {"variant": "CQPISFSGFGAEQDDLGGLGLGP", "note": "[D13Q]", "protein stability index": 2.21},
      {"variant": "CQPISFSGFGAEFDDLGGLGLGP", "note": "[D13F]", "protein stability index": 2.54},
      {"variant": "CQPISFSGFGAEDDDLGGHGLGP", "note": "[L19H]", "protein stability index": 2.96},
      {"variant": "CQPISFSGFGAEDDDLGGEGLGP", "note": "[L19E]", "protein stability index": 2.49},
      {"variant": "CQPISFSGFGAEDDDLGGCGLGP", "note": "[L19C]", "protein stability index": 2.52},
      {"variant": "CQPISFSGFGAEDDDLGGFGLGP", "note": "[L19F]", "protein stability index": 2.51},
      {"variant": "CQPISFSGFGAEDDDLGGAGLGP", "note": "[L19A]", "protein stability index": 2.72},
      {"variant": "CQPISFSGFGAEDDDLGGGGLGP", "note": "[L19G]", "protein stability index": 2.87},
      {"variant": "CQPISFSGFGAEDDDLGGKGLGP", "note": "[L19K]", "protein stability index": 1.99},
      {"variant": "CQPISFSGFGAEDDDLGGMGLGP", "note": "[L19M]", "protein stability index": 2.29},
      {"variant": "CQPISFSGFGAEDDDLGGDGLGP", "note": "[L19D]", "protein stability index": 2.39},
      {"variant": "CQPISFSGFGAEDDDLGGNGLGP", "note": "[L19N]", "protein stability index": 2.54},
      {"variant": "CQPISFSGFGAEDDDLGGIGLGP", "note": "[L19I]", "protein stability index": 2.13},
      {"variant": "CQPISFSGFGAEDDDRGGLGLGP", "note": "[L16R]", "protein stability index": 2.18},
      {"variant": "CQPISFSGFGAEDDDIGGLGLGP", "note": "[L16I]", "protein stability index": 2.21},
      {"variant": "CQPISFSGFGAEDDDHGGLGLGP", "note": "[L16H]", "protein stability index": 2.26},
      {"variant": "CQPISFSGFGAEDDDYGGLGLGP", "note": "[L16Y]", "protein stability index": 2.27},
      {"variant": "CQPISFSGFGAEDDDKGGLGLGP", "note": "[L16K]", "protein stability index": 2.25},
      {"variant": "CQPISFSGFGAEDDDSGGLGLGP", "note": "[L16S]", "protein stability index": 2.28},
      {"variant": "CQPISFSGFGAEDDDPGGLGLGP", "note": "[L16P]", "protein stability index": 2.15},
      {"variant": "CQPISFSGFGAEDDDNGGLGLGP", "note": "[L16N]", "protein stability index": 2.07},
      {"variant": "CQPISFSGFGAEDDDMGGLGLGP", "note": "[L16M]", "protein stability index": 2.45},
      {"variant": "CQPISFSGFGAEDDDFGGLGLGP", "note": "[L16F]", "protein stability index": 2.23},
      {"variant": "CQPISFSGFGAEDDDDGGLGLGP", "note": "[L16D]", "protein stability index": 2.22},
      {"variant": "CQPISFSGFGAEDDDCGGLGLGP", "note": "[L16C]", "protein stability index": 2.34},
      {"variant": "CQPISFSGFGAEDDDEGGLGLGP", "note": "[L16E]", "protein stability index": 1.85},
      {"variant": "CQPISFSGFGAEDDDWGGLGLGP", "note": "[L16W]", "protein stability index": 2.25},
      {"variant": "CQPISFSGFGAEDDDQGGLGLGP", "note": "[L16Q]", "protein stability index": 2.27},
      {"variant": "CQPISFSGFGAEDDDTGGLGLGP", "note": "[L16T]", "protein stability index": 2.35},
      {"variant": "CQPISFSGFGAEDDDVGGLGLGP", "note": "[L16V]", "protein stability index": 2.36},
      {"variant": "CQPISFSGFGAEDDDAGGLGLGP", "note": "[L16A]", "protein stability index": 2.59},
      {"variant": "CQPISFSGFGAEDDDGGGLGLGP", "note": "[L16G]", "protein stability index": 2.21},
      {"variant": "CQPISFSGFMAEDDDLGGLGLGP", "note": "[G10M]", "protein stability index": 2.29},
      {"variant": "CQPISFSGFQAEDDDLGGLGLGP", "note": "[G10Q]", "protein stability index": 2.3},
      {"variant": "CQPISFSGFNAEDDDLGGLGLGP", "note": "[G10N]", "protein stability index": 2.04},
      {"variant": "CQPISFSGFAAEDDDLGGLGLGP", "note": "[G10A]", "protein stability index": 2.16},
      {"variant": "CQPISFSGFIAEDDDLGGLGLGP", "note": "[G10I]", "protein stability index": 2.08},
      {"variant": "CQPISFSGFPAEDDDLGGLGLGP", "note": "[G10P]", "protein stability index": 1.83},
      {"variant": "CQPISFSGFKAEDDDLGGLGLGP", "note": "[G10K]", "protein stability index": 1.96},
      {"variant": "CQPISFSGFVAEDDDLGGLGLGP", "note": "[G10V]", "protein stability index": 2.2},
      {"variant": "CQPISFSGFRAEDDDLGGLGLGP", "note": "[G10R]", "protein stability index": 2.21},
      {"variant": "CQPISFSGFWAEDDDLGGLGLGP", "note": "[G10W]", "protein stability index": 1.9},
      {"variant": "CQPISFSGFTAEDDDLGGLGLGP", "note": "[G10T]", "protein stability index": 1.91},
      {"variant": "CQPISFSGFSAEDDDLGGLGLGP", "note": "[G10S]", "protein stability index": 1.95},
      {"variant": "CQPISFSGFYAEDDDLGGLGLGP", "note": "[G10Y]", "protein stability index": 1.94},
      {"variant": "CQPISFSGFFAEDDDLGGLGLGP", "note": "[G10F]", "protein stability index": 2.06},
      {"variant": "CQPISFSGFCAEDDDLGGLGLGP", "note": "[G10C]", "protein stability index": 2.04},
      {"variant": "CQPISFSGFLAEDDDLGGLGLGP", "note": "[G10L]", "protein stability index": 2.56},
      {"variant": "CQPISFSGFEAEDDDLGGLGLGP", "note": "[G10E]", "protein stability index": 2.08},
      {"variant": "CQPISFSGFHAEDDDLGGLGLGP", "note": "[G10H]", "protein stability index": 1.99},
      {"variant": "CQPISFSGFDAEDDDLGGLGLGP", "note": "[G10D]", "protein stability index": 2.51}
    ]}
  ]
}
